Laboratory results reported in paper PMC7026020.

What was measured:
[1] = biological target: membrane FcγRIIIA (human) (UniProt P08637); test: flow cytometry on cells
[2] = biological target: membrane FcγRIIIA (human) (UniProt P08637); test: flow cytometry on cells; competition: CD16-transduced NK92 cells (2 x 10^4) incubated with FITC-conjugated anti-CD16 3G8 (1:100) and increasing concentrations of TmAbs or sc-TmAbs, 30 min at 4°C; percent inhibition of 3G8 binding

Sequence of UniProt P08637 (P08637 17-208): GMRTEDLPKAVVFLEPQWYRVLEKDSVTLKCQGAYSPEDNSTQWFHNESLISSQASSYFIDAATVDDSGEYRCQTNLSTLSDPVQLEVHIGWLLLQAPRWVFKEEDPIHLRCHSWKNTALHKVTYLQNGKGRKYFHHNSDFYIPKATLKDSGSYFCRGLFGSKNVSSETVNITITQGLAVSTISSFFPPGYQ

Substance | maximal percent inhibition of 3G8 binding (at 3 mg/mL) [1] | maximal percent inhibition of 3G8 binding (at 3 mg/mL) [2]
cetuximab (antibody) | 80% | –
ipilimumab (antibody) | 80% | –
trastuzumab (antibody) | 80% | –

Now from value to substance:

maximal percent inhibition of 3G8 binding (at 3 mg/mL) [1] | maximal percent inhibition of 3G8 binding (at 3 mg/mL) [2] | Substance
– | 80% | infliximab (antibody)
80% | – | rituximab (antibody)
